By Kd is commonly meant the concentration at which binding is half-saturated.

This data set addresses fibronectin (native, purified from mouse plasma) (mouse, UniProt P11276 33-2477). Kind of data set: BLI; BLI: streptavidin biosensors, biotinylated aptamer (500 nM) immobilized, fibronectin analyte, 1x Octet Kinetics Buffer, 30 C, 1:1 fit; pull-down: streptavidin Dynabeads M-270, beads washed in PBS + 5 mM MgCl2. Particulars: protein: native; chain copies: 2; label: 5' 6-FAM; 3' BioTEG. In general terms: Biolayer interferometry detects binding as a change in optical thickness at a sensor tip.

Chain of fibronectin (native, purified from mouse plasma) (P11276 33-2477): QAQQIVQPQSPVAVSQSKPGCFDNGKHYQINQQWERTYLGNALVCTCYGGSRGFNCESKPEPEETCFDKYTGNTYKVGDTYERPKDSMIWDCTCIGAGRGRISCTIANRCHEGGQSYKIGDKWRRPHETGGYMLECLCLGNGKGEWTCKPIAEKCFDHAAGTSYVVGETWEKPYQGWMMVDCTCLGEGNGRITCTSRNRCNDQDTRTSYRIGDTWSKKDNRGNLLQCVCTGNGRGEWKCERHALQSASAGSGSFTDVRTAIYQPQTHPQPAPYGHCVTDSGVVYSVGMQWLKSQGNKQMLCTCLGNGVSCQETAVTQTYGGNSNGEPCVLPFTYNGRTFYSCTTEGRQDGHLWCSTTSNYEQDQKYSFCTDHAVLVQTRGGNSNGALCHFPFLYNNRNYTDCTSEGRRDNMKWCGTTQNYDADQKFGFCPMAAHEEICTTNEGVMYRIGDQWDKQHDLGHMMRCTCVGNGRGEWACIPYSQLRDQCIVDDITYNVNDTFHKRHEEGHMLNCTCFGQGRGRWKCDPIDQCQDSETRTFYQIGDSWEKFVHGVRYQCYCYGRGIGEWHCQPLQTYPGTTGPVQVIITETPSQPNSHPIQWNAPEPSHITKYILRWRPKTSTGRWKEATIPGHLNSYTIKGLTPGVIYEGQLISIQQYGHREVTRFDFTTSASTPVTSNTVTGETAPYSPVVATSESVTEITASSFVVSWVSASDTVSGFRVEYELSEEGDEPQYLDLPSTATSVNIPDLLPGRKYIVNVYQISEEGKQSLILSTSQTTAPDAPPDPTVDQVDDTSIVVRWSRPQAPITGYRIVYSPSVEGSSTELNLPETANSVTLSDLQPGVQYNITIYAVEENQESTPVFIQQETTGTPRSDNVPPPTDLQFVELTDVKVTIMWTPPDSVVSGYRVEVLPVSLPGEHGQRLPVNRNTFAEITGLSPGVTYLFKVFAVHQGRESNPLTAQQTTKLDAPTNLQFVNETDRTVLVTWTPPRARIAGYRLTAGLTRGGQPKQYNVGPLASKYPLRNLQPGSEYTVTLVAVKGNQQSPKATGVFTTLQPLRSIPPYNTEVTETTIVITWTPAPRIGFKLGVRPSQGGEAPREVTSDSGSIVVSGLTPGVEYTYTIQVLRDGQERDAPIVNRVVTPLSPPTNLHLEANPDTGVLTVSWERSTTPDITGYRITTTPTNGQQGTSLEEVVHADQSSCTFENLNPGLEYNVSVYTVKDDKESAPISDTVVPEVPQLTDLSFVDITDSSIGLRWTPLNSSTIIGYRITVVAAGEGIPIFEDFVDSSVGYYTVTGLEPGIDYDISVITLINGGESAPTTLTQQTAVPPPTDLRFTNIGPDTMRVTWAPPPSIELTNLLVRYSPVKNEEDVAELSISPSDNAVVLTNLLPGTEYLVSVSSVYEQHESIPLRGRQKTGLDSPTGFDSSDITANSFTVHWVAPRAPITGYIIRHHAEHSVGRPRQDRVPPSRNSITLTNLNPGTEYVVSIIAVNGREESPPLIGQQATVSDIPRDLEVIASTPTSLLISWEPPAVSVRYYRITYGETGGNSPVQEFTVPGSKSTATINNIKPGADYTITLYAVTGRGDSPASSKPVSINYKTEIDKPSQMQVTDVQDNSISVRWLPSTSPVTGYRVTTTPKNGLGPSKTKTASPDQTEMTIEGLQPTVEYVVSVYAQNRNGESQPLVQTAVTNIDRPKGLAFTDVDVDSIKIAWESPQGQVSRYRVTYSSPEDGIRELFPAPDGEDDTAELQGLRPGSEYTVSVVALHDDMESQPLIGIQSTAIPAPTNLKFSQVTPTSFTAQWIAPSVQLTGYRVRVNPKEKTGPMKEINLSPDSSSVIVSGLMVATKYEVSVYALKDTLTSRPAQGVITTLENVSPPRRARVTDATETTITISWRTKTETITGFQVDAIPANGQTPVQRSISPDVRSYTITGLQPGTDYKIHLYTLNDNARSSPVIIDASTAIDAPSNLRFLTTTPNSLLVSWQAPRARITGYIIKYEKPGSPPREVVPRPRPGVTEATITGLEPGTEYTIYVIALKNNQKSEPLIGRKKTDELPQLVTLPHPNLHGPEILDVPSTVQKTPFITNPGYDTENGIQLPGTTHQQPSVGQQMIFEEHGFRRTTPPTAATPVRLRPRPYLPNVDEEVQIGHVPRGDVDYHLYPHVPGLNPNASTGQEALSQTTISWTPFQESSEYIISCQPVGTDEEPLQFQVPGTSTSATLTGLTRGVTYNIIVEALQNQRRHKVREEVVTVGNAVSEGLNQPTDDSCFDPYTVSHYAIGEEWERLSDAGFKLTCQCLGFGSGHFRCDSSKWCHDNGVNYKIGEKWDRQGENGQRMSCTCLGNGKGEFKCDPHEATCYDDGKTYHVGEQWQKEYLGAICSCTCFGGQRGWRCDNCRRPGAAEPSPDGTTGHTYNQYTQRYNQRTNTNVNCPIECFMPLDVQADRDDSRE

B1: aptamer 6762 (ssDNA)
DNA: TGCGTATTGACACATGCGTGGCTTAATGCAATCCATCTGTTGCATTTTTCTAAACGTCGCCAGGCATAGGTATGGGCTTT
On to B1, for which the Kd was found to be 579 pM.

B2: aptamer 6756 (ssDNA)
DNA: TGCGTATTGACACATGCGTGAAACGGACTTTTATTAGACAAATAATGCATGTCTCGAATTCAGGCATAGGTATGGGCTTT
As to B2, the Kd was 921 pM.

B3: negative control oligonucleotide 6766 (ssDNA)
DNA: TGCGTATTGACACATGCGTGCTTGTTATATAACGTGTCATAGCGTCCAAAAAGAAGTACACAGGCATAGGTATGGGCTTT
On to B3, for which the binding result is listed as “no binding”.
